Laboratory results taken from US8409833B2 (Hokko Chemical Industry Co., Ltd., priority 2003, dated 2013).
Entries after “also recorded” stand apart in the source; their conditions may differ.

B1: SIDH1: scyllo-inositol dehydrogenase purified from Acetobacter sp. AB10281, DEAE-unadsorbed fraction, SEQ ID NO: 28 (protein, listed as Acetobacter sp.)
chain: MTKRKLRIGLIGSGFMGRTHAFGYSTASRVFDLPFQPELTCLADISDEAAAKAADALGFARSTSDWRTLVNDPEIDVVNITAPNAFHKEMALAAIAAGKHVYCEKPLAPLAADAREMAEAAEAKGVKTQVGFNYLCNPMLALARDMIAAGELGEIRGYRGLHAEDYMADASSPFTFRLDPAGGGALADIGSHALATAEFLMGPAAGAITQVMGDCVTVIKTRPDGKGGTRAVEVDDIGRALLRFENGATGSVEGNWIATGRTMQHDFEVYGTKGALAFTQQRFNELHFFSSTDARGRKGFRRIEAGPEHAPYGLFCVAPGHQLGFNDLKAIEVARYLEALAGHHPEPFNFRAGLRIQTLVETIHASSKSAAWRDVPTDKVKLQAKSRQHEKA
B2: AB10121 Atu3234 gene: recombinant scyllo-inositol dehydrogenase, Atu3234 gene product of Agrobacterium sp. AB10121 FERM P-17383, SEQ ID NO: 12 (protein, listed as Agrobacterium sp.)
chain: MAIEGKTTDKANKRIRLGMVGGGSGAFIGGVHRMAARLDNRFDLVAGALSSTPEKSLASGRELGLDPERCYGSFEEMAEKEALREDGIEAVAIVTPNHVHYPAAKAFLERGIHVICDKPLTSNLEDAKKLKDVADKADALFILTHNYTGYPMVRHARELVESGALGTIRLVQMEYPQDWLAEPIEQTGAKQAVWRTDPAQSGAGGSTGDIGTHAYNLGCFISGLEVDELAADVHTFVEGRRLDDNAHVMLRFKPKGGKQPAKGLLWCSQVAVGHENGLKVRVYGDKAGIEWTQADPNYLWFTKLGELKQLITRGGAGAGAAAARVTRIPSGHPEGYLEAFATIYTEAAHAIEARRTGSVLDKAVIYPTVDDGVKGVAFVTACIESGKKNGVWVKL

Experiments:
Assay type in all cases: biochemical
[1] = Km values of scyllo-inositol dehydrogenase for scyllo-inosose (reciprocal plot); settings: NADPH, pH 8.0, 36° C.
Protocol: The determination is carried out such that the Km value is calculated after reciprocal plot according to the general method.
After the reaction, […] of water was immediately added thereto, and the absorbance at 340 nm was measured. From the blank value of a test solution prepared by using water instead of the enzyme solution, the decrease in the absorbance at 340 nm was measured. The enzyme solution was diluted as required. The Km values were calculated by the reciprocal plot.

[2] = Effects of heavy metal on scyllo-inositol dehydrogenase; settings: 2 mM heavy metal in reaction solution; no addition group = 100%
Protocol: Effects by the heavy metals can be confirmed by: mixing 5 μl of a reaction solution (200 mM Tris buffer of pH 8.0 containing 2% of NADPH, 1% of scyllo-inosose, and 2 mM metal salt) and 5 μl of an enzyme solution; allowing the mixture to react at 36° C. for 30 minutes; adding 500 μl of water immediately after the completion of the reaction; determining the absorbance at 340 nm; and determining a decrease in the absorbance at 340 nm with respect to a blank value of a test solution containing water instead of the enzyme solution. The term “activated” means the case where the enzymatic activity of a fraction added with 1 mM of a heavy metal is 105% or more, preferably 120% or more, with respect to the enzymatic activity of a fraction added with no heavy metal as 100%. On the other hand, the term “inhibited” means the case where the enzymatic activity of the fraction added with 1 mM of a heavy metal is 95% or less, preferably 70% or less, with respect to the enzymatic activity of the fraction added with no heavy metal as 100%.
The effects of heavy metal on the enzymes of the present invention were determined by: mixing 5 μl of a reaction solution (200 mM Tris buffer (pH 8.0), 2% of NADPH, 1% of scyllo-inosose, and 2 mM of a heavy metal) with 5 μl of an enzyme solution; and allowing the mixture to react at 36° C. for 30 min. After the reaction, 500 μl of water was immediately added thereto, and the absorbance at 340 nm was measured. From the blank value of a test solution prepared by using water instead of the enzyme solution, the decrease in the absorbance at 340 nm was measured. The enzyme solution was diluted as required. CaCl2, CoCl2, ZnSO4, MgSO4, SnCl2, NiCl2, and MnSO4 were used as metallic salts. The activity of the no addition group was defined as 100%, and the relative activities were compared. […] Most of the enzymes were inhibited in the presence of Zn^2+ ion, in contrast, the enzyme derived from Bacillus subtilis 168 was activated in the presence of Zn^2+ ion.

[3] = Optimum pH of scyllo-inositol dehydrogenase; settings: 200 mM phosphate buffer (pH 5.0 to 9.0); 90% or more of the maximum activity
Protocol: The optimum pH can be confirmed by: mixing 5 μl of a reaction solution (200 mM […] of pH 5.0 to 9.0 containing 2% of NADPH, and 1% of scyllo-inosose) and 5 μl of an enzyme solution; allowing the mixture to react at 36° C. for 30 minutes; adding 500 μl of water immediately after the completion of the reaction; determining the absorbance at 340 nm; and determining a decrease in the absorbance at 340 nm with respect to a blank value of a test solution containing water instead of the enzyme solution. The term “optimum pH” means a pH at which the enzyme has 90% or more of the maximum activity. The enzyme of the present invention can be divided depending on, for example, a range of the optimum pH into groups each having: an optimum pH in an acidic region (optimum pH is pH of 5.5 to 6.5); an optimum pH in a neutral region (optimum pH is pH of 6.5 to 7.5 or 6.5 to 8.5); and an optimum pH in an alkaline region (optimum pH is pH of 7.0 to 8.5 or 7.5 to 9.0).
The optimum pH of the enzymes of the present invention was determined by: mixing 5 μl of a reaction solution (200 mM phosphate buffer (pH 5.0 to 9.0), 2% of NADPH, and 1% of scyllo-inosose) with 5 μl of an enzyme solution; and allowing the mixture to react at 36° C. for 30 min. After the reaction, 500 μl of water was immediately added thereto, and the absorbance at 340 nm was measured. From the blank value of a test solution prepared by using water instead of the enzyme solution, the decrease in the absorbance at 340 nm was measured. The enzyme solution was diluted as required.

[4] = Substrate specificity of scyllo-inositol dehydrogenase (relative activity of oxidation, absorbance at 545 nm); settings: relative to reactivity to scyllo-inositol, NADP^+, pH 8.0, 25° C.
Protocol: Examples of an inositol isomer include scyllo-inositol (SI), myo-inositol (MI), D-chiro-inositol (DCI), L-chiro-inositol (LCI), epi-inositol (EI), muco-inositol (MuI), allo-inositol (AI), and neo-inositol (NI).
The inositol isomers include scyllo-inositol (SI), myo-inositol (MI), D-chiro-inositol (DCI), L-chiro-inositol (LCI), epi-inositol (EI), muco-inositol (MuI), allo-inositol (AI), and neo-inositol (NI).
The reaction rate was calculated from the absorbance increments at the respective times.

[5] = Enzyme reaction product of scyllo-inosose reduction measured by HPLC; settings: for Reduction reaction product: SIS: scyllo-inosose, SI: scyllo-inositol
Protocol: Meanwhile, the enzyme reaction product was measured as follows: 10 mg of scyllo-inosose, 40 mg of NADPH, and 10 U of the enzyme were allowed to react in 1.0 ml of 100 mM Tris buffer (pH 8.0) at 36° C. for 4 hours, and a heat treatment was performed at 80° C. for 10 min, followed by cooling. Then, 100 μl of a strong base cation exchange resin, 100 μl of a strong acid anion exchange resin, and 10 mg of activated carbon were added, and the mixture was stirred and centrifuged. Then, the supernatant was diluted 2-fold, and measurement was performed by HPLC (Shodex Asahipak NH2P-50 4E Φ 4.6×250 mm: Shodex) using an RI detector under the condition of a column temperature of 40° C. and a mobile phase flow rate of 1.5 ml (80% acetonitrile). […] Meanwhile, the sequence of the ydgJ gene is shown in SEQ ID NO: 1, and the amino acid sequence corresponding thereto is shown in SEQ ID NO: 2.
Meanwhile, enzyme reaction product was measured as follows: 10 mg of scyllo-inosose, 40 mg of NADPH, and 10 U of the enzyme were allowed to react in 1.0 ml of 100 mM Tris buffer (pH 8.0) at 36° C. for 4 hours, and a heat treatment was performed at 80° C. for 10 min, followed by cooling. Then, 100 μl of a strong base cation exchange resin, 100 μl of a strong acid anion exchange resin, and 10 mg of activated carbon were added, and the mixture was stirred and centrifuged. Then, the supernatant was diluted 2-fold, and measurement was performed by HPLC (Shodex Asahipak NH2P-50 4E Φ 4.6×250 mm: Shodex) using an RI detector under conditions of a column temperature of 40° C. and a mobile phase flow rate of 1.5 ml (80% acetonitrile).

Molecule | Km [1] [mM] | Heavy metal effects: activation [2] | Heavy metal effects: strong inhibition [2] | Optimum pH [3] | Substrate specific Relative activity (less than 20%) [4] | Reduction reaction product [5] | Substrate specific Relative activity (20 to 70%) [4] | Substrate specific Relative activity (70% or more) [4] | share of scyllo-inositol in the product of scyllo-inosose reduction ([5]; 10 mg scyllo-inosose, 40 mg NADPH, 10 U enzyme, 36° C., 4 hours, myo-inositol not detected) [%]
B1 | 7.6 | Co | Sn, Zn | pH 5.5-6.5 | DCI, LCI, EI,; also recorded: MuI, AI, NI | Only SIS → SI |  |  | 
B2 | 3.1 | Co, Mn, Ca | Sn, Zn | pH 7.0-8.5 | AI, NI | Only SIS → SI | MuI | SI, MI, DCI, EI, and LCI | 100
